# Laboratory results published in US11278600B2, “Human alpha-galactosidase variants” (Codexis, Inc., priority 2014, dated 2022).
# Tests used:
# Assay type in all cases: biochemical
# [1] = HTP-analysis of supernatants pretreated with acid (MUGal hydrolysis); details: challenge at pH 4.2, yeast supernatant
# Summary of the method: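 GLA variants were secreted from INVSc1 yeast grown 66-84 h at 30° C. in SD-Ura with 2% glucose; supernatants were mixed with McIlvaine buffer pH 3.3-4.3 and held at 37° C. for 1-3 h. Residual activity on MUGal at pH 4.8 was then measured by fluorescence.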
# [2] = HTP-analysis of yeast culture supernatants, no challenge (MUGal hydrolysis); details: yeast supernatant
# Summary of the method: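 Activity read as 4-methylumbelliferyl α-D-galactopyranoside hydrolysis: fluorescence (355/448 nm) after sodium carbonate stop, following 30-180 min at 37° C with 2 mM MUGal stock at pH 4.6–4.8. Enzyme source is unchallenged culture supernatant of INVSc1 yeast expressing GLA variants, grown 66-84 h at 30° C.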
# [3] = HTP-analysis of supernatants pretreated with base (MUGal hydrolysis); details: yeast supernatant; for Relative Activity of GLA Variants After Challenge at pH 7.1: activity of the variant/activity of WT GLA (SEQ ID NO: 5)
# Summary of the method: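 Fluorescence of released 4-MU (Ex 355 nm, Em 448 nm) after carbonate quench reports MUGal hydrolysis by GLA variants secreted from INVSc1 yeast. Before the acidic (pH 4.3-4.8) 30-180 min reaction at 37° C, supernatants had been pre-incubated at pH 7.0-9.7 for 1-18 h at 37° C.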
# [4] = activity of the variant/activity of WT GLA (SEQ ID NO: 5)
# [5] = activity of the variant/activity of Rd2BB (SEQ ID NO: 10)
Molecule,"Relative Activity of GLA Variants After Challenge at pH 4.2 [1, 4]","Relative Activity of GLA Variants After No Challenge (NC) [2, 4]",Relative Activity of GLA Variants After Challenge at pH 7.1 [3],"Relative Activity of GLA Variants After Challenge at pH 4.2 [1, 5]","Relative Activity of GLA Variants After No Challenge (NC) [2, 5]","Relative Activity of GLA Variants After Challenge at pH 7.6 ([3]; challenge at pH 7.6, activity of the variant/activity of Rd2BB (SEQ ID NO: 10))"
"117 (protein, Synthetic Polypeptide sequence of Variant No. 117 of mature Human GLA) LDNGLARTPTMGWLHWERFMCNLDCQEEPDSCISEKLFMEMAELMVSEGWKDAGYEYLCIDDCWMAPQRDSEGRLQADPQRFPHGIRQLANYVHSKGLKLGIYADVGNKTCAGFPGSFGYYDIDAQTFADWGVDLLKFDGCYCDSLENLADGYKHMSLALNRTGRSIVYSCEWPLYMWPFQKPNYTEIRQYCNHWRNFADIDDSWKSIKSILDWTSFNQERIVDVAGPGGWNDPDMLVIGNFGLSWNQQVTQMALWAIMAAPLFMSNDLRHISPQAKALLQDKDVIAINQDPLGKQGYQLRQGDNFEVWERPLSGLAWAVAMINRQEIGGPRSYTIAVASLGKGVACNPACFITQLLPVKRKLGFYEWTSRLRSHINPTGTVLLQLENTMQMSKDLLG",++ (++ = >1.5 to 2.5 relative activity over WT GLA (SEQ ID NO: 5)),++ (++ = >1.5 to 2.5 relative activity over WT GLA (SEQ ID NO: 5)),++ (++ = >1.5 to 2.5 relative activity over WT GLA (SEQ ID NO: 5)),,,
"35 (protein, Synthetic Polypeptide sequence of Variant No. 35 of mature Human GLA) LDNGLARTPTMGWLHWERFMCNLDCQEEPDSCISEKLFMEMAELMVSEGWKDAGYEYLCIDDCWMAPQRDSEGRLQADPQRFPHGIRQLANYVHSKGLKLGIYADVGNKTCAGFPGSFGYYDIDAQTFADWGVDLLKFDGCYCDSLENLADGYKHMSLALNRTGRSIVYSCEWPLYMWPFQKPNYTEIRQYCNHWRNFADIDDSWKSIKSILDWTSFNQERIVDVAGPGGWNDPDMLVIGNFGLSWNQQVTQMALWAIMAAPLFMSNDLRHISPQAKALLQDKDVIAINQDPLGKQGYQLRQGDNFEVWERPLSGLAWAVAMINRQEIGGPRSYTIAVSSLGKGVACNPACFITQLLPVKRKLGFYEWTSRLRSHINPTGTVLLQLENTMQMSKDLLL",++ (++ = >1.5 to 2.5 relative activity over WT GLA (SEQ ID NO: 5)),++ (++ = >1.5 to 2.5 relative activity over WT GLA (SEQ ID NO: 5)),++ (++ = >1.5 to 2.5 relative activity over WT GLA (SEQ ID NO: 5)),,,
"120 (protein, Synthetic Polypeptide sequence of Variant No. 120 of mature Human GLA) LDNGLARTPTMGWLHWERFMCNLDCQEEPDSCISEKLFMEMAELMVSEGWKDAGYEYLCIDDCWMAPQRDSEGRLQADPQRFPHGIRQLANYVHSKGLKLGIYADVGNKTCAGFPGSFGYYDIDAQTFADWGVDLLKFDGCYCDSLENLADGYKHMSLALNRTGRSIVYSCEWPLYMWPFQKPNYTEIRQYCNHWRNFADIDDSWKSIKSILDWTSFNQERIVDVAGPGGWNDPDMLVIGNFGLSWNQQVTQMALWAIMAAPLFMSNDLRHISPQAKALLQDKDVIAINQDPLGKQGYQLRQGDNFEVWERPLSGLAWAVAMINRQEIGGPRSYTIAVASLGKGVACNPACFITQLLPVKRKLGFYEWTSRLRSHINPTGTVLLQLENTMQMSKDLLR",++ (++ = >1.5 to 2.5 relative activity over WT GLA (SEQ ID NO: 5)),++ (++ = >1.5 to 2.5 relative activity over WT GLA (SEQ ID NO: 5)),++ (++ = >1.5 to 2.5 relative activity over WT GLA (SEQ ID NO: 5)),,,
"118 (protein, Synthetic Polypeptide sequence of Variant No. 118 of mature Human GLA) LDNGLARTPTMGWLHWERFMCNLDCQEEPDSCISEKLFMEMAELMVSEGWKDAGYEYLCIDDCWMAPQRDSEGRLQADPQRFPHGIRQLANYVHSKGLKLGIYADVGNKTCAGFPGSFGYYDIDAQTFADWGVDLLKFDGCYCDSLENLADGYKHMSLALNRTGRSIVYSCEWPLYMWPFQKPNYTEIRQYCNHWRNFADIDDSWKSIKSILDWTSFNQERIVDVAGPGGWNDPDMLVIGNFGLSWNQQVTQMALWAIMAAPLFMSNDLRHISPQAKALLQDKDVIAINQDPLGKQGYQLRQGDNFEVWERPLSGLAWAVAMINRQEIGGPRSYTIAVASLGKGVACNPACFITQLLPVKRKLGFYEWTSRLRSHINPTGTVLLQLENTMQMSKDLLN",++ (++ = >1.5 to 2.5 relative activity over WT GLA (SEQ ID NO: 5)),++ (++ = >1.5 to 2.5 relative activity over WT GLA (SEQ ID NO: 5)),++ (++ = >1.5 to 2.5 relative activity over WT GLA (SEQ ID NO: 5)),,,
"122 (protein, Synthetic Polypeptide sequence of Variant No. 122 of mature Human GLA) LDNGLARTPTMGWLHWERFMCNLDCQEEPDSCISEKLFMEMAETMVSEGWKDAGYEYLCIDDCWMAPQRDSEGRLQADPQRFPHGIRQLANYVHSKGLKLGIYADVGNKTCAGFPGSFGYYDIDAQTFADWGVDLLKFDGCYCDSLENLADGYKHMSLALNRTGRSIVYSCEWPLYMWPFQKPNYTEIRQYCNHWRNFADIDDSWKSIKSILDWTSFNQERIVDVAGPGGWNDPDMLVIGNFGLSWNQQVTQMALWAIMAAPLFMSNDLRHISPQAKALLQDKDVIAINQDPLGKQGYQLRQGDNFEVWERPLSGLAWAVAMINRQEIGGPRSYTIAVASLGKGVACNPACFITQLLPVKRKLGFYEWTSRLRSHINPTGTVLLQLENTMQMSKDLLL",++ (++ = >1.5 to 2.5 relative activity over WT GLA (SEQ ID NO: 5)),++ (++ = >1.5 to 2.5 relative activity over WT GLA (SEQ ID NO: 5)),++ (++ = >1.5 to 2.5 relative activity over WT GLA (SEQ ID NO: 5)),,,
"194 (protein, Synthetic Polypeptide sequence of Variant No. 194 of mature Human GLA) LDNGLARTPTMGWLHWERFMCNLDCQEEPDSCISEKLFMEMAELMVSEGWKDAGYEYLCIDDCWMAPQRDSEGRLQADPQRFPHGIRQLANYVHSKGLKLGIYADVGNKTCAGFPGSFGYYDIDAQTFADWGVDLLKFDGCYCDSLENLADGYKHMSLALNRTGRSIVYSCEWPLYMWPFQKPNYTEIRQYCNHWRNFADIDDSWRSIKSILDWTSFNQERIVDVAGPGGWNDPDMLVIGNFGLSWNQQVTQMALWAIMAAPLFMSNDLRHISPQAKALLQDKDVIAINQDPLGKQGYQLRQGDNFEVWERPLSGLAWAVAMINRQEIGGPRSYTIAVASLGKGVACNPACFITQLLPVKRKLGFYEWTSRLRSHINPTGTVLLQLENTMQMSKDLLL",,,,++ (++ = 1.5 to 2.5 relative activity over Rd2BB (SEQ ID NO: 10)),++ (++ = 1.5 to 2.5 relative activity over Rd2BB (SEQ ID NO: 10)),++ (++ = 1.5 to 2.5 relative activity over Rd2BB (SEQ ID NO: 10))
"119 (protein, Synthetic Polypeptide sequence of Variant No. 119 of mature Human GLA) LDNGLARTPTMGWLHWERFMCNLDCQEEPDSCISEKLFMEMAELMVSEGWKDAGYEYLCIDDCWMAPQRDSEGRLQADPQRFPHGIRQLANYVHSKGLKLGIYADVGNKTCAGFPGSFGYYDIDAQTFADWGVDLLKFDGCYCDSLENLADGYKHMSLALNRTGRSIVYSCEWPLYMWPFQKPNYTEIRQYCNHWRNFADIDDSWKSIKSILDWTSFNQERIVDVAGPGGWNDPDMLVIGNFGLSWNQQVTQMALWAIMAAPLFMSNDLRHISPQAKALLQDKDVIAINQDPLGKQGYQLRQGDNFEVWERPLSGLAWAVAMINRQEIGGPRSYTIAVASLGKGVACNPACFITQLLPVKRKLGFYEWTSRLRSHINPTGTVLLQLENTMQMSKDLLQ",++ (++ = >1.5 to 2.5 relative activity over WT GLA (SEQ ID NO: 5)),++ (++ = >1.5 to 2.5 relative activity over WT GLA (SEQ ID NO: 5)),++ (++ = >1.5 to 2.5 relative activity over WT GLA (SEQ ID NO: 5)),,,
"121 (protein, Synthetic Polypeptide sequence of Variant No. 121 of mature Human GLA) LDNGLARTPTMGWLHWERFMCNLDCQEEPDSCISEKLFMEMAERMVSEGWKDAGYEYLCIDDCWMAPQRDSEGRLQADPQRFPHGIRQLANYVHSKGLKLGIYADVGNKTCAGFPGSFGYYDIDAQTFADWGVDLLKFDGCYCDSLENLADGYKHMSLALNRTGRSIVYSCEWPLYMWPFQKPNYTEIRQYCNHWRNFADIDDSWKSIKSILDWTSFNQERIVDVAGPGGWNDPDMLVIGNFGLSWNQQVTQMALWAIMAAPLFMSNDLRHISPQAKALLQDKDVIAINQDPLGKQGYQLRQGDNFEVWERPLSGLAWAVAMINRQEIGGPRSYTIAVASLGKGVACNPACFITQLLPVKRKLGFYEWTSRLRSHINPTGTVLFQLENTMQMSKDLLL",++ (++ = >1.5 to 2.5 relative activity over WT GLA (SEQ ID NO: 5)),+ (+ = 0.5 to 1.5 relative activity over WT GLA (SEQ ID NO: 5)),++ (++ = >1.5 to 2.5 relative activity over WT GLA (SEQ ID NO: 5)),,,
